Measurements reported in paper PMC7530888 (Nucleic Acids Research, 2020).

Assays:
[1] = Small angle X-ray scattering; assay type: physicochemical, M. tuberculosis; conditions: from P(r); for Dmax: BM29 ESRF, 10°C, pH 8.0
[2] = assay type: physicochemical, M. tuberculosis; conditions: Superdex 200 increase 10/30; pH 8.0; calibrated with protein standards
MtbXthA [3] = assay: Effect on AP-endonuclease activity of MtbXthA; assay type: biochemical, M. tuberculosis; conditions: N1, MtbXthA 10 nM, added protein 5-100 nM; pH 7.8, 37°C, 10 min
[4] = test system: apurinic/ apyrimidinic DNA (AP-DNA) substrate (N1); assay: AP-endonuclease assay on THF AP-DNA; assay type: biochemical; conditions: no MtbXthA
[5] = test system: nicked duplex DNA substrate (L2); assay: Ligation of nicked AP-DNA with 5′p-THF; assay type: biochemical; conditions: L2 10 nM, MtbLigA 0.01-20 nM
MtbXthA [6] = assay: SEC co-elution with MtbXthA; assay type: binding, M. tuberculosis; conditions: Superdex 200; pH 8.0; SDS-PAGE of fractions
[7] = test system: nicked duplex DNA substrate (L1); assay: In vitro ligation of nicked duplex DNA; assay type: biochemical; conditions: L1 10 nM, MtbLigA 5 nM alone; 50 μM NAD^+, pH 7.8, 37°C, 3 min; SD ±2.5
[8] = test system: THF containing AP-DNA (N1); assay: Gel shift assay, THF AP-DNA; assay type: binding; conditions: N1 10 nM, MtbLigA 0-40 µM
mimic DNA substrate (L3) = assay: Ligation of true incised abasic site mimic with 5′-dRP; assay type: biochemical; conditions: L3 treated with uracil DNA glycosylase; MtbLigA 0.01-20 nM
MtbXthA^ID = assay: Effect on endonuclease activity of MtbXthA^ID; assay type: biochemical, M. tuberculosis; conditions: N1 20 nM, MtbXthA^ID 10 nM, MtbLigA 5-100 nM

| Substance | Dmax [1] | Stoke's radii [2] | effect on AP-endonuclease activity of MtbXthA (MtbXthA [3]) | effect on AP-DNA substrate alone (in words) [4] | ligation of nicked AP-DNA (in words) [5] | interaction with MtbXthA by SEC (MtbXthA [6]) | DNA ligation [7] | Dmax in presence of nicked DNA ([1]; presence of nicked DNA substrate (S1)) | complex with THF AP-DNA (in words) [8] | ligated product (in words) (mimic DNA substrate (L3)) | effect on incision activity of MtbXthA^ID (MtbXthA^ID) |
| --- | --- | --- | --- | --- | --- | --- | --- | --- | --- | --- | --- |
| MtbLigA+Nicked DNA: MtbLigA in complex with 27-mer nicked DNA (S1) | 14.79 nm | 3.19 nm | – | – | – | – | – | – | – | – | – |
| BSA: BSA, control for macromolecular crowding [reference compound] | – | – | exerted no effect | – | – | – | – | – | – | – | – |
| MtbLigA: M. tuberculosis NAD^+-dependent DNA ligase A, full-length | 16.7 nm | 4.02 nm | progressive decrease in product formation | no effect on the AP-DNA substrate | could ligate the nicked AP-DNA | co-eluted | 75% | 14.79 nm | did not form a complex with THF containing AP-DNA | progressive increase in the ligated product | reduction in incision activity |
